Results on two substances are retold here after article doi:10.1101/219105.

A word on the stoichiometry N: it is a count of units in the complex or per binding partner.

The target in assay [1] is Asp1/2/3 complex (without a tag) (Streptococcus gordonii) (UniProt Q9AET8). Nature of the assay: light scattering.
In assay [2] the target is Asp1, untagged, as co-expressed with Asp3 and tagged Asp2 (Streptococcus gordonii) (UniProt Q9AET8). Description: light scattering.

Sequence of UniProt Q9AET8 (Q9AET8 whole entry): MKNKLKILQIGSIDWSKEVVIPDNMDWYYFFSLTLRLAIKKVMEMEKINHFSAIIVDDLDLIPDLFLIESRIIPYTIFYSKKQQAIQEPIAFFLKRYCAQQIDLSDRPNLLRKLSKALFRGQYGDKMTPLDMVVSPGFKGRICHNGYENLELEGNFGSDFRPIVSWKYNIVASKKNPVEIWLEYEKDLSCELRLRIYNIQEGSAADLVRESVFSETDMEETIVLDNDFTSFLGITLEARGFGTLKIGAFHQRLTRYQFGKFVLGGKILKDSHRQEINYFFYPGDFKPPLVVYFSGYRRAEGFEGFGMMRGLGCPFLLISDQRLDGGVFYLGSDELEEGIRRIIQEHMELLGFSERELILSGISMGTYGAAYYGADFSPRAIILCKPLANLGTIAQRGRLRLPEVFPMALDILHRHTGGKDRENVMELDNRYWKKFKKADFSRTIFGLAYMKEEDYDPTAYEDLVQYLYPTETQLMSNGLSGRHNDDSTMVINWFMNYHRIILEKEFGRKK

In assay [1], “Asp1/2/3 complex (without a tag) (from UniProt Q9AET8 1-510)” displayed a stoichiometry N of 2.

With “Asp3 (accessory Sec protein 3) (natural protein)”, in assay [2], the stoichiometry N was 1.
